Assay results reported in US20130210034A1, “COMPLEX PHOSPHOPROTEIN ACTIVATION PROFILES” (BECKMAN COULTER, INC., priority 2005, published 2013).
“And” between values parts separate entries of the source, which are not always exact repeats. Equal entries are not always repeated.

Assays:
Format in all cases: cell-based, human
pAKT = assay: Cytokine-stimulated phosphorylation in immunophenotypically defined cell populations from healthy donor BM (flow cytometry); conditions: healthy donor BM, mean ± SD
Method: (§1) Bone marrow (BM) samples were collected in 7.5 mL Iscove's modified Dulbecco's medium (IMDM) supplemented with 100U penicillin, 0.01 mg/mL streptomycin, and 70 μg/mL heparin sodium salt from 10 patients undergoing hip replacement surgery, who were otherwise healthy. These patients were from a pool of surgery patients, age 49 to 77, and represented […] patients. […] These BM samples were rinsed twice with IMDM to release cells, filtered using a 100 μm Nylon cell strainer to remove marrow particles, and centrifuged for at RT fro 7 minutes at 200 g. The cell pellet was washed twice with sterile IMDM to remove traces of fat and re-suspended in IMDM to a concentration of 3×10^7 cells/mL.
(§2) To assess the signal transduction response after growth factor simulation, a series comprising two sets of tubes including about 3×10^6 cells/100 μL were incubated at 37° C. for 30 minutes. After this pre-incubation period, tubes with then processes with either a stimulant or inhibitor. […] To examine the effects of protein phosphorylation inhibition, tubes were incubated with an inhibitor cocktail comprising 100 μM/100 μL UO126, 1 μM/100 μL LY294002, and 1 μM/100 μL rapamycin. One unstimulated tube receiving no stimulant or inhibitor was processed to assess basal levels of phospho-protein expression. After stimulation the cells were immediately fixed in 10% formaldehyde solution at 37° C. Pre-labeling with CD13, CD16 and CD64 antibodies was carried out 20 minutes prior to formaldehyde fixation. After fixation, one set of tubes was permeabilized without methanol for pAKT, pERK and pS6 staining and the other for 80% methanol permeabilized for pSTAT3 and pSTAT5 staining. After permeablization, the cells were washed in PBS with 2% BSA and blocked by re-suspended in 75 μL of PBS comprising 25% heat inactivated normal mouse serum, 25% normal rabbit serum. To stain cells with fluorescent conjugated monoclonal antibodies, samples were incubated on ice for 45 minutes in 100 μL of an antibody staining solution including either: 1) CD15-Pacific Orange, CD34-Phycoerythrin-Texas Red, CD117-Phycoerythrin-Cyanin 5.5, CD45-Allophycocyanin-Alexa Fluor 750 (or CD45-Pacific Orange, in which case CD15-Pacific Orange was omitted), pS6-Pacific Blue, pERK-Alexa Fluor 488 and pAKT-Alexa Fluor 647 or 2) CD15-Pacific Orange, CD34-Phycoerythrin-Texas Red, CD117-Phycoerythrin-Cyanin 5.5, CD45-Allophycocyanin-Alexa Fluor 750 or CD45-Pacific Blue, pSTAT3-Alexa Fluor 488 and pSTAT5-Phycoerythrin. The stained cells were washed twice with ice cold PBS containing 2% BSA and centrifuged at 800 g for 6 minutes at 4° C. The supernatant was discarded and cells re-suspended in 250 μL of chilled wash buffer for data acquisition. Stained cells were examined using either GALIOS flow cytometer (Beckman Coulter) or CYAN ADP (Beckman Coulter) equipped with 488 nm, 405 nm and 635 nm lasers to detect the degree of fluorescence. Data were analyzed using FCS Express (De Novo Software, CA) analysis software.
(§3) Specific phosphoprotein expression of pERK, pS6, pAKT, pSTAT5, and pSTAT3 was examined in seven discrete phenotypically defined populations based on 7-color immunophenotyping (FIG. 1). The percent of responding (phosphorprotein positive) cells for each of these populations was determined from individual single parameter histograms based on a fixed integration region set on the inhibitor treated control at about 3% positives.

pERK = assay: as above; conditions: healthy donor BM, mean ± SD
Method: as §1, §2, §3

pS6 = assay: as above; conditions: healthy donor BM, mean ± SD
Method: as §1, §2, §3

pSTAT3 [1] = assay: as above; conditions: for pSTAT3 Percent (%) Responding Cells, Mean / pSTAT3 S/N ratio: healthy donor BM, mean ± SD
Method: as §1, §2, §3

pSTAT5 [2] = assay: as above; conditions: for pSTAT5 Percent (%) Responding Cells, Mean / pSTAT5 S/N ratio: healthy donor BM, mean ± SD
Method: as §1, §2, §3

pSTAT3 [3] = assay: Cytokine-stimulated phosphorylation in AML cell populations (BM or PB of AML patients); conditions: patient AML3 (Example 3)
Method: as §2, §3
(§4) Using normal BM signaling profiles of Example 1 as comparison, analysis of 14 AML samples was carried out to identify differences in signaling responses. White blood cells from BM or peripheral blood (PB) samples were obtained from 14 diagnosed AML patients undergoing routine clinical flow cytometry analysis using IRB approved protocols. The AML patients included newly diagnosed AML, AMLs arising in a background of MDS, therapy related AMLs and previously diagnosed AML post therapy. The median age of the patients at diagnosis was 51 years (range: 29-75 years) and represented 5 female and 9 male patients. The median white blood cell was 6.4 million/mL (range: 0.9-106 M/mL) and the BM morphologic blast count was an average of 46% (range: 0%-90%).
(§5) Experiments performed to assess the signal transduction response after growth factor simulation were performed as described for Example 1.

pSTAT5 [4] = assay: as above; conditions: patient AML3 (Example 3)
Method: as §2, §3, §4, §5

lymphocytes = assay: Phosphoprotein modulation in lymphocytes of normal BM (Example 1, internal negative control); conditions: lymphocytes of normal BM (Examples 1-2)
Method: To assess the signal transduction response after growth factor simulation, a series comprising two sets of tubes including about 3×10^6 cells/100 μL were incubated at 37° C. for 30 minutes. After this pre-incubation period, tubes with then processes with either a stimulant or inhibitor. […] To examine the effects of protein phosphorylation inhibition, tubes were incubated with an inhibitor cocktail comprising 100 μM/100 μL UO126, 1 μM/100 μL LY294002, and 1 μM/100 μL rapamycin. One unstimulated tube receiving no stimulant or inhibitor was processed to assess basal levels of phospho-protein expression. After stimulation the cells were immediately fixed in 10% formaldehyde solution at 37° C. […] Stained cells were examined using either GALIOS flow cytometer (Beckman Coulter) or CYAN ADP (Beckman Coulter) equipped with 488 nm, 405 nm and 635 nm lasers to detect the degree of fluorescence. Data were analyzed using FCS Express (De Novo Software, CA) analysis software.
The tables include the mean and the standard deviation of the percent responding cell population as well as the signal/noise (S/N) ratio for the 5 different phosphoproteins in response to the above-mentioned stimuli in each of these populations. […] Lymphocytes thus served as a de facto internal negative control and their median fluorescence intensity (MFI) was used for normalization of the phosphoprotein measurements.

B1: Granulocyte Colony-Stimulating Factor (protein, UniProt P09919 31-207, looked up)
Granulocyte …: TPLGPASSLPQSFLLKCLEQVRKIQGDGAALQEKLVSECATYKLCHPEELVLLGHSLGIPWAPLSSCPSQALQLAGCLSQLHSGLFLYQGLLQALEGISPELGPTLDTLQLDVADFATTIWQQMEELGMAPALQPTQGAMPAFASAFQRRAGGVLVASHLQSFLEVSYRVLRHLAQP
notes: colony-stimulating cytokine
pAKT; CD34^+ (CD34^+/CD117^+ cells)
  pAKT Percent (%) Responding Cells, Mean: 22.5% and 22.5 ± 18.4%
  pAKT S/N ratio: 6.4 ± 5.9
pAKT; CD117^+ (CD34^−/CD117^+ cells)
  pAKT Percent (%) Responding Cells, Mean: 16.6 ± 19.8%
  pAKT S/N ratio: 2.7 ± 1.8
pAKT; G1, immature myeloid cells
  pAKT Percent (%) Responding Cells, Mean: 5.3 ± 10.9%
  pAKT S/N ratio: 2.5 ± 1.5
pAKT; G2, intermediate myeloid cells
  pAKT Percent (%) Responding Cells, Mean: 4.1 ± 3.3%
  pAKT S/N ratio: 2.5 ± 1.2
pAKT; G3, mature myeloid cells
  pAKT Percent (%) Responding Cells, Mean: 4.4 ± 3.1%
  pAKT S/N ratio: 2.8 ± 1.4
pAKT; Mono, monocytes
  pAKT Percent (%) Responding Cells, Mean: 4.1 ± 4.9%
  pAKT S/N ratio: 2.6 ± 1.2
pERK; CD34^+ (CD34^+/CD117^+ cells)
  pERK Percent (%) Responding Cells, Mean: 47.1% and 47.1 ± 12.6%
  pERK S/N ratio: 10.2 and 10.2 ± 2.7
pERK; CD117^+ (CD34^−/CD117^+ cells)
  pERK Percent (%) Responding Cells, Mean: 39.2 ± 13.9%
  pERK S/N ratio: 6.8 ± 2.5
pERK; G1, immature myeloid cells
  pERK Percent (%) Responding Cells, Mean: 22.9% and 22.9 ± 24.1%
  pERK S/N ratio: 4.2 ± 1.6
pERK; G2, intermediate myeloid cells
  pERK Percent (%) Responding Cells, Mean: 55.2 ± 33.1%
  pERK S/N ratio: 5.8 ± 2.4
pERK; G3, mature myeloid cells
  pERK Percent (%) Responding Cells, Mean: 46.0% and 46.0 ± 30.3%
  pERK S/N ratio: 6.2 ± 2.2
pERK; Mono, monocytes
  pERK Percent (%) Responding Cells, Mean: 12.7 ± 8.8%
  pERK S/N ratio: 3.2 ± 1.6
pS6; CD34^+ (CD34^+/CD117^+ cells)
  pS6 Percent (%) Responding Cells, Mean: 52% and 52.0 ± 34.2%
  pS6 S/N ratio: 30.7 ± 25.2
pS6; CD117^+ (CD34^−/CD117^+ cells)
  pS6 Percent (%) Responding Cells, Mean: 41.5 ± 26.5%
  pS6 S/N ratio: 12.9 ± 10.1
pS6; G1, immature myeloid cells
  pS6 Percent (%) Responding Cells, Mean: 2.7 ± 1.9%
  pS6 S/N ratio: 4.0 ± 2.3
pS6; G2, intermediate myeloid cells
  pS6 Percent (%) Responding Cells, Mean: 2.9 ± 2.3%
  pS6 S/N ratio: 3.7 ± 2.1
pS6; G3, mature myeloid cells
  pS6 Percent (%) Responding Cells, Mean: 4.2 ± 3.0%
  pS6 S/N ratio: 4.0 ± 2.4
pS6; Mono, monocytes
  pS6 Percent (%) Responding Cells, Mean: 42.2% and 42.2 ± 30.2%
  pS6 S/N ratio: 17.2 ± 16.8
pSTAT3 [1]; CD34^+ (CD34^+/CD117^+ cells)
  pSTAT3 Percent (%) Responding Cells, Mean: 77.8 ± 19.1%
  pSTAT3 S/N ratio: 9.8 ± 3.0
pSTAT3 [1]; CD117^+ (CD34^−/CD117^+ cells)
  pSTAT3 Percent (%) Responding Cells, Mean: 46.2 ± 26.8%
  pSTAT3 S/N ratio: 9.9 ± 4.6
pSTAT3 [1]; G1, immature myeloid cells
  pSTAT3 Percent (%) Responding Cells, Mean: 91.2 ± 20.4%
  pSTAT3 S/N ratio: 13.3 ± 4.8
pSTAT3 [1]; G2, intermediate myeloid cells
  pSTAT3 Percent (%) Responding Cells, Mean: 91.3 ± 19.3%
  pSTAT3 S/N ratio: 13.3 ± 5.1
pSTAT3 [1]; G3, mature myeloid cells
  pSTAT3 Percent (%) Responding Cells, Mean: 89.2 ± 24.9%
  pSTAT3 S/N ratio: 14.0 ± 5.5
pSTAT3 [1]; Mono, monocytes
  pSTAT3 Percent (%) Responding Cells, Mean: 27.8 ± 31.8%
  pSTAT3 S/N ratio: 6.1 ± 2.7
pSTAT3 [1]; Table 7 comparison value, matches percent responding CD34^+ cells of Table 5
  pSTAT3, Normal Sample: 77.8
pSTAT5 [2]; CD34^+ (CD34^+/CD117^+ cells)
  pSTAT5 Percent (%) Responding Cells, Mean: 82.6 ± 14.0%
  pSTAT5 S/N ratio: 25.2 and 25.2 ± 13.3
pSTAT5 [2]; CD117^+ (CD34^−/CD117^+ cells)
  pSTAT5 Percent (%) Responding Cells, Mean: 49.8 ± 25.2%
  pSTAT5 S/N ratio: 17.0 ± 11.9
pSTAT5 [2]; G1, immature myeloid cells
  pSTAT5 Percent (%) Responding Cells, Mean: 70.9 ± 26.5%
  pSTAT5 S/N ratio: 8.7 and 8.7 ± 1.9
pSTAT5 [2]; G2, intermediate myeloid cells
  pSTAT5 Percent (%) Responding Cells, Mean: 71.6 ± 22.0%
  pSTAT5 S/N ratio: 9.7 ± 2.3
pSTAT5 [2]; G3, mature myeloid cells
  pSTAT5 Percent (%) Responding Cells, Mean: 71.4 ± 17.7%
  pSTAT5 S/N ratio: 11.7 and 11.7 ± 3.0
pSTAT5 [2]; Mono, monocytes
  pSTAT5 Percent (%) Responding Cells, Mean: 29.5 ± 19.9%
  pSTAT5 S/N ratio: 5.9 ± 2.0
pSTAT5 [2]; Table 7 comparison value, matches percent responding CD34^+ cells of Tables 1-5
  pSTAT5, Normal Sample: 82.6
pSTAT3 [3]
  pSTAT3, AML Sample: 7.0
pSTAT5 [4]
  pSTAT5, AML Sample: 8.3
lymphocytes
  Modulation of phosphoprotein epitopes (pERK, pS6, pAKT, pSTAT3 or pSTAT5) in lymphocytes: no response
